T1: Ep-CAM (UniProt P16422 24-265, limits assumed)
T1 construct: Amine coupled to a CM5 chip in the Biacore assays
T1 sequence (looked up): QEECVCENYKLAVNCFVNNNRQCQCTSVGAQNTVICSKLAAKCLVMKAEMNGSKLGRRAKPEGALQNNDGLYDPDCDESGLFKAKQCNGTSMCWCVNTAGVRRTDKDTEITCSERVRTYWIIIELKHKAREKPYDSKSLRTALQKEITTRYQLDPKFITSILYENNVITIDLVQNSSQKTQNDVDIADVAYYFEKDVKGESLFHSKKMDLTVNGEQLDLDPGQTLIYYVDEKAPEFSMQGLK


molecular target: T1, Ep-CAM; experiment: Biacore, Fab periplasmic extract

| binding result | fold difference in affinity vs parental ING-1 [fold] | Binder |
| --- | --- | --- |
| no binding | – | ING-1 light chain L30K (Fab, V domains shown, Fab, periplasmic extract) VH: QIQLVQSGPELKKPGETVKISCKASGYTFTKYGMNWVKQAPGKGLKWMGWINTYTEEPTYGDDFKGRFAFSLETSASTANLQINNLKSEDTATYFCARFGSAVDYWGQGTSVTVSS VL: DIVMTQAAFSNPVTLGTSGSISCRSSKSLKHSNGITYLYWYLQKPGQSPQLLIYQMSNLASGVPDRFSSSGSGTDFTLRISRVEAEDVGVYYCAQNLELPRTFGGGTKLEMKR |
| – | 2 | ING-1 light chain L99N (Fab, V domains shown, Fab, periplasmic extract) VH: QIQLVQSGPELKKPGETVKISCKASGYTFTKYGMNWVKQAPGKGLKWMGWINTYTEEPTYGDDFKGRFAFSLETSASTANLQINNLKSEDTATYFCARFGSAVDYWGQGTSVTVSS VL: DIVMTQAAFSNPVTLGTSGSISCRSSKSLLHSNGITYLYWYLQKPGQSPQLLIYQMSNLASGVPDRFSSSGSGTDFTLRISRVEAEDVGVYYCAQNLENPRTFGGGTKLEMKR |
| – | 0.8 | ING-1 light chain N33Y (Fab, V domains shown, Fab, periplasmic extract) VH: QIQLVQSGPELKKPGETVKISCKASGYTFTKYGMNWVKQAPGKGLKWMGWINTYTEEPTYGDDFKGRFAFSLETSASTANLQINNLKSEDTATYFCARFGSAVDYWGQGTSVTVSS VL: DIVMTQAAFSNPVTLGTSGSISCRSSKSLLHSYGITYLYWYLQKPGQSPQLLIYQMSNLASGVPDRFSSSGSGTDFTLRISRVEAEDVGVYYCAQNLELPRTFGGGTKLEMKR |
| – | 0.01 | ING-1 light chain L99E (Fab, V domains shown, Fab, periplasmic extract) VH: QIQLVQSGPELKKPGETVKISCKASGYTFTKYGMNWVKQAPGKGLKWMGWINTYTEEPTYGDDFKGRFAFSLETSASTANLQINNLKSEDTATYFCARFGSAVDYWGQGTSVTVSS VL: DIVMTQAAFSNPVTLGTSGSISCRSSKSLLHSNGITYLYWYLQKPGQSPQLLIYQMSNLASGVPDRFSSSGSGTDFTLRISRVEAEDVGVYYCAQNLEEPRTFGGGTKLEMKR |
| – | 0.02 | ING-1 light chain L99D (Fab, V domains shown, Fab, periplasmic extract) VH: QIQLVQSGPELKKPGETVKISCKASGYTFTKYGMNWVKQAPGKGLKWMGWINTYTEEPTYGDDFKGRFAFSLETSASTANLQINNLKSEDTATYFCARFGSAVDYWGQGTSVTVSS VL: DIVMTQAAFSNPVTLGTSGSISCRSSKSLLHSNGITYLYWYLQKPGQSPQLLIYQMSNLASGVPDRFSSSGSGTDFTLRISRVEAEDVGVYYCAQNLEDPRTFGGGTKLEMKR |
| – | 0.7 | ING-1 light chain N33K (Fab, V domains shown, Fab, periplasmic extract) VH: QIQLVQSGPELKKPGETVKISCKASGYTFTKYGMNWVKQAPGKGLKWMGWINTYTEEPTYGDDFKGRFAFSLETSASTANLQINNLKSEDTATYFCARFGSAVDYWGQGTSVTVSS VL: DIVMTQAAFSNPVTLGTSGSISCRSSKSLLHSKGITYLYWYLQKPGQSPQLLIYQMSNLASGVPDRFSSSGSGTDFTLRISRVEAEDVGVYYCAQNLELPRTFGGGTKLEMKR |
| no binding | – | ING-1 light chain L97D (Fab, V domains shown, Fab, periplasmic extract) VH: QIQLVQSGPELKKPGETVKISCKASGYTFTKYGMNWVKQAPGKGLKWMGWINTYTEEPTYGDDFKGRFAFSLETSASTANLQINNLKSEDTATYFCARFGSAVDYWGQGTSVTVSS VL: DIVMTQAAFSNPVTLGTSGSISCRSSKSLLHSNGITYLYWYLQKPGQSPQLLIYQMSNLASGVPDRFSSSGSGTDFTLRISRVEAEDVGVYYCAQNDELPRTFGGGTKLEMKR |
| – | 0.06 | ING-1 light chain P100E (Fab, V domains shown, Fab, periplasmic extract) VH: QIQLVQSGPELKKPGETVKISCKASGYTFTKYGMNWVKQAPGKGLKWMGWINTYTEEPTYGDDFKGRFAFSLETSASTANLQINNLKSEDTATYFCARFGSAVDYWGQGTSVTVSS VL: DIVMTQAAFSNPVTLGTSGSISCRSSKSLLHSNGITYLYWYLQKPGQSPQLLIYQMSNLASGVPDRFSSSGSGTDFTLRISRVEAEDVGVYYCAQNLELERTFGGGTKLEMKR |
| – | 1 | ING-1 light chain L99Y (Fab, V domains shown, Fab, periplasmic extract) VH: QIQLVQSGPELKKPGETVKISCKASGYTFTKYGMNWVKQAPGKGLKWMGWINTYTEEPTYGDDFKGRFAFSLETSASTANLQINNLKSEDTATYFCARFGSAVDYWGQGTSVTVSS VL: DIVMTQAAFSNPVTLGTSGSISCRSSKSLLHSNGITYLYWYLQKPGQSPQLLIYQMSNLASGVPDRFSSSGSGTDFTLRISRVEAEDVGVYYCAQNLEYPRTFGGGTKLEMKR |
| no binding | – | ING-1 light chain L97R (Fab, V domains shown, Fab, periplasmic extract) VH: QIQLVQSGPELKKPGETVKISCKASGYTFTKYGMNWVKQAPGKGLKWMGWINTYTEEPTYGDDFKGRFAFSLETSASTANLQINNLKSEDTATYFCARFGSAVDYWGQGTSVTVSS VL: DIVMTQAAFSNPVTLGTSGSISCRSSKSLLHSNGITYLYWYLQKPGQSPQLLIYQMSNLASGVPDRFSSSGSGTDFTLRISRVEAEDVGVYYCAQNRELPRTFGGGTKLEMKR |
| – | 0.05 | ING-1 light chain L99H (Fab, V domains shown, Fab, periplasmic extract) VH: QIQLVQSGPELKKPGETVKISCKASGYTFTKYGMNWVKQAPGKGLKWMGWINTYTEEPTYGDDFKGRFAFSLETSASTANLQINNLKSEDTATYFCARFGSAVDYWGQGTSVTVSS VL: DIVMTQAAFSNPVTLGTSGSISCRSSKSLLHSNGITYLYWYLQKPGQSPQLLIYQMSNLASGVPDRFSSSGSGTDFTLRISRVEAEDVGVYYCAQNLEHPRTFGGGTKLEMKR |
| – | 0.04 | ING-1 light chain L99S (Fab, V domains shown, Fab, periplasmic extract) VH: QIQLVQSGPELKKPGETVKISCKASGYTFTKYGMNWVKQAPGKGLKWMGWINTYTEEPTYGDDFKGRFAFSLETSASTANLQINNLKSEDTATYFCARFGSAVDYWGQGTSVTVSS VL: DIVMTQAAFSNPVTLGTSGSISCRSSKSLLHSNGITYLYWYLQKPGQSPQLLIYQMSNLASGVPDRFSSSGSGTDFTLRISRVEAEDVGVYYCAQNLESPRTFGGGTKLEMKR |
| – | 0.02 | ING-1 light chain L99K (Fab, V domains shown, Fab, periplasmic extract) VH: QIQLVQSGPELKKPGETVKISCKASGYTFTKYGMNWVKQAPGKGLKWMGWINTYTEEPTYGDDFKGRFAFSLETSASTANLQINNLKSEDTATYFCARFGSAVDYWGQGTSVTVSS VL: DIVMTQAAFSNPVTLGTSGSISCRSSKSLLHSNGITYLYWYLQKPGQSPQLLIYQMSNLASGVPDRFSSSGSGTDFTLRISRVEAEDVGVYYCAQNLEKPRTFGGGTKLEMKR |
| no binding | – | ING-1 light chain L30W (Fab, V domains shown, Fab, periplasmic extract) VH: QIQLVQSGPELKKPGETVKISCKASGYTFTKYGMNWVKQAPGKGLKWMGWINTYTEEPTYGDDFKGRFAFSLETSASTANLQINNLKSEDTATYFCARFGSAVDYWGQGTSVTVSS VL: DIVMTQAAFSNPVTLGTSGSISCRSSKSLWHSNGITYLYWYLQKPGQSPQLLIYQMSNLASGVPDRFSSSGSGTDFTLRISRVEAEDVGVYYCAQNLELPRTFGGGTKLEMKR |
| – | 0.03 | ING-1 light chain P100K (Fab, V domains shown, Fab, periplasmic extract) VH: QIQLVQSGPELKKPGETVKISCKASGYTFTKYGMNWVKQAPGKGLKWMGWINTYTEEPTYGDDFKGRFAFSLETSASTANLQINNLKSEDTATYFCARFGSAVDYWGQGTSVTVSS VL: DIVMTQAAFSNPVTLGTSGSISCRSSKSLLHSNGITYLYWYLQKPGQSPQLLIYQMSNLASGVPDRFSSSGSGTDFTLRISRVEAEDVGVYYCAQNLELKRTFGGGTKLEMKR |
| – | 0.02 | ING-1 light chain L99Q (Fab, V domains shown, Fab, periplasmic extract) VH: QIQLVQSGPELKKPGETVKISCKASGYTFTKYGMNWVKQAPGKGLKWMGWINTYTEEPTYGDDFKGRFAFSLETSASTANLQINNLKSEDTATYFCARFGSAVDYWGQGTSVTVSS VL: DIVMTQAAFSNPVTLGTSGSISCRSSKSLLHSNGITYLYWYLQKPGQSPQLLIYQMSNLASGVPDRFSSSGSGTDFTLRISRVEAEDVGVYYCAQNLEQPRTFGGGTKLEMKR |
| – | 0.02 | ING-1 light chain P100D (Fab, V domains shown, Fab, periplasmic extract) VH: QIQLVQSGPELKKPGETVKISCKASGYTFTKYGMNWVKQAPGKGLKWMGWINTYTEEPTYGDDFKGRFAFSLETSASTANLQINNLKSEDTATYFCARFGSAVDYWGQGTSVTVSS VL: DIVMTQAAFSNPVTLGTSGSISCRSSKSLLHSNGITYLYWYLQKPGQSPQLLIYQMSNLASGVPDRFSSSGSGTDFTLRISRVEAEDVGVYYCAQNLELDRTFGGGTKLEMKR |
| – | 0.05 | ING-1 light chain P100H (Fab, V domains shown, Fab, periplasmic extract) VH: QIQLVQSGPELKKPGETVKISCKASGYTFTKYGMNWVKQAPGKGLKWMGWINTYTEEPTYGDDFKGRFAFSLETSASTANLQINNLKSEDTATYFCARFGSAVDYWGQGTSVTVSS VL: DIVMTQAAFSNPVTLGTSGSISCRSSKSLLHSNGITYLYWYLQKPGQSPQLLIYQMSNLASGVPDRFSSSGSGTDFTLRISRVEAEDVGVYYCAQNLELHRTFGGGTKLEMKR |
| – | 0.04 | ING-1 light chain L99R (Fab, V domains shown, Fab, periplasmic extract) VH: QIQLVQSGPELKKPGETVKISCKASGYTFTKYGMNWVKQAPGKGLKWMGWINTYTEEPTYGDDFKGRFAFSLETSASTANLQINNLKSEDTATYFCARFGSAVDYWGQGTSVTVSS VL: DIVMTQAAFSNPVTLGTSGSISCRSSKSLLHSNGITYLYWYLQKPGQSPQLLIYQMSNLASGVPDRFSSSGSGTDFTLRISRVEAEDVGVYYCAQNLERPRTFGGGTKLEMKR |
| no binding | – | ING-1 light chain L30R (Fab, V domains shown, Fab, periplasmic extract) VH: QIQLVQSGPELKKPGETVKISCKASGYTFTKYGMNWVKQAPGKGLKWMGWINTYTEEPTYGDDFKGRFAFSLETSASTANLQINNLKSEDTATYFCARFGSAVDYWGQGTSVTVSS VL: DIVMTQAAFSNPVTLGTSGSISCRSSKSLRHSNGITYLYWYLQKPGQSPQLLIYQMSNLASGVPDRFSSSGSGTDFTLRISRVEAEDVGVYYCAQNLELPRTFGGGTKLEMKR |

From patent publication US20110118131A1 (published 2011)
